Experimental data published in patent US9828641B2, “Systemic genotoxicity as blood marker for allergic inflammation” (The Regents of the University of California, priority 2013, dated 2017).
“Also recorded” adds a separate entry of the source.

B1: IL-β: Recombinant mouse IL-1β (Sigma), injected via the tail vein at 100 ng/mouse (protein, UniProt P10749 118-269, looked up)
Interleukin-1 beta: VPIRQLHYRLRDEQQKSLVLSDPYELKALHLNGQNINQQVIFSMSFVQGEPSNDKIPVALGLKGKNLYLSCVMKDGTPTLQLESVDPKQYPKKKMEKRFVFNKIEVKSKVEFESAEFPNWYISTSQAEHKPVFLGNNSGQDIIDFTMESVSS

Assays:
[1] = tested on: normochromatic erythrocytes; assay: In vivo micronucleus assay; conditions: wildtype mice, 48 hours post-injection
Protocol: Micronuclei (MN) formation was determined in peripheral blood erythrocytes to assess chromosomal instability. Similar to a previously proposed method (28), 3 μl of whole blood was spread on a microscope slide and stained in Modified Wright-Giemsa solution (Sigma-Aldrich, St. Louis, Mo.). MN were counted and scored with an Olympus Ax70 (Tokyo, Japan) at 100× following previously proposed criteria (29). At least 4000 mature erythrocytes were counted per mouse, and the frequency of MN formation was calculated as number of micronucleated erythrocytes per 1000 normochromatic erythrocytes.
Micronucleus formation was determined in normochromatic erythrocytes as micronucleated normochromatic erythrocytes per 1000 normochromatic erythrocytes as described previously (1, 8).
Mouse TNF-α (Sigma) and/or mouse IL-1β (Sigma) were injected via the tail vein at 500 ng/mouse and 100 ng/mouse, respectively, dissolved in saline. Control animals received vehicle only. Peripheral blood was collected at 1 hr, 2 hrs, 4 hrs, and 24 hrs after injection for genotoxicity assays.

peripheral leukocytes [2] = assay: Alkaline comet assay with and without hOgg1 incubation; type: in vivo; conditions: wildtype mice, single tail vein injection; for Time of maximum DNA damage to peripheral leukocytes: TNF-α 500 ng or IL-β 100 ng alone; for Time to repair of DNA damage in peripheral leukocytes: TNF-α 500 ng/mouse or IL-β 100 ng/mouse alone
Protocol: Frozen blood was further diluted 1:15 in PBS before further preparation.
(§1) The enzyme hOgg1-modified comet assay was used for determination of oxidative DNA damage (25). Following lysis, samples were washed in an enzyme wash buffer (40 mM HEPES, 0.1M KCl, 0.5 mM EDTA, 0.2 mg/ml BSA, pH 8.0) then incubated at 37° C. for 10 min in either control (buffer with no hOGG1) or enzyme treated (buffer with hOGG1) solutions according to the manufacturer's recommendations. (New England Biolabs, Ipswich, Mass.). Both control and enzyme treated gels were then placed in electrophoresis buffer and processed identically to the alkaline comet assay.
The enzyme hOgg1-modified comet assay was used and carried out identically as previously described (1).
as §1, with “For determination of oxidative DNA damage the” for “The”, “(5). After lysis in the alkaline comet assay,” for “for determination of oxidative DNA damage (25). Following lysis,”, “recommendations” for “recommendations.”
Control animals received vehicle only.

peripheral leukocytes [3] = assay: γ-H2AX immunofluorescence (DNA double strand breaks); type: in vivo, mice; conditions: 3% DSS
Protocol: Peripheral blood was incubated in Buffer EL (Qiagen, Valencia, Calif.) on ice to remove erythrocytes. Samples were then processed on coverslips essentially as described elsewhere (26). […] Coverslips were mounted with [sequence] with 4,6-diamidino-2-phenylindole (Vector Laboratories, Burlingame, Calif.). Images were captured with CytoVision® (Applied Imaging Corporation, San Jose, Calif.) connected to a Zeiss Axioplan 2 microscope. At least 125 cells were counted and cells with more than four distinct foci in the nucleus were considered positive for γ-H2AX (26). Apoptotic cells, which are distinguishable due to presence of 10-fold the number of nuclear foci in damaged cells (27), were not included in analyses.
Peripheral blood and splenocytes were incubated in Buffer EL (Qiagen, Valencia, Calif.) on ice to remove erythrocytes. […] Samples were then processed on coverslips as described elsewhere (6). Briefly, after permeabilization and blocking, cells were incubated with mouse anti-phospho-Histone H2A.X S139(P) (Upstate, Temecula, Calif.) at 1:400 followed by FITC-conjugated anti-mouse IgG (Jackson ImmunoResearch, West Grove, Pa.) at 1:200. Coverslips were mounted with [sequence] with 4,6-diamidino-2-phenylindole (Vector Laboratories, Burlingame, Calif.). […] At least 125 cells were counted and cells with more than four distinct foci in the nucleus were considered positive (6). […]

[4] = literature statement; cited from earlier work
[5] = tested on: TNF-α, MCP-1, IFN-γ, TGF-β transcripts; assay: Quantitative real-time PCR of cytokines in peripheral blood; type: in vivo, mice; conditions: 3% DSS, particularly after the first cycle
Protocol: Total RNA was isolated using QiaAmp RNA Blood Mini Kit (Qiagen) according to manufacturer's instructions. 25 ng/μl of total RNA was used for reverse transcription using OligodT (Invitrogen) and Superscript III Reverse Transcriptase (Invitrogen). 10 ng/μl of cDNA was used for quantitative real time PCR using Taqman Gene Expression Assays (Applied Biosystems, Foster City, Calif. p/n 4331182) for Tbp (TATA binding protein), TNF-α (tumor necrosis factor α), MCP-1 (monocyte chemoattractant protein 1, also known as CC chemokine ligand 2, CCL2), IFN-γ (interferon γ), TGF-β ([…]) and Taqman Gene Expression Master Mix according to manufacturer's instructions on the ABI Prism 7500 sequence detection system (Applied Biosystems). Tbp was chosen as the endogenous control due to its low variability and low to medium relative abundance in terms of expression in blood (30). Each measurement was performed in triplicate and results were analyzed using SDS 2.2.1 software (Applied Biosystems). Gene expression was determined using the relative standard curve method normalized to Tbp expression.

| Percentage of cells positive for γ-H2AX nuclear foci vs non-treated (peripheral leukocytes [3]; after first 7 day acute treatment, p<0.01) | Molecule | Micronuclei formation in normochromatic erythrocytes vs before injection [1] | Onset of DNA damage to peripheral leukocytes (comet and γ-H2AX) (peripheral leukocytes [2]; TNF-α 500 ng/mouse) | Time until which DNA damage remained elevated (peripheral leukocytes [2]; TNF-α 500 ng/mouse) | Time of maximum DNA damage to peripheral leukocytes (peripheral leukocytes [2]) | Time to repair of DNA damage in peripheral leukocytes (peripheral leukocytes [2]) | Percent γ-H2AX positive cells vs non-treated, chronic phase (peripheral leukocytes [3]; until end of treatment, p<0.05) | Direct mutagenicity/genotoxicity [4] | Cytokine mRNA expression in peripheral blood [5] |
| --- | --- | --- | --- | --- | --- | --- | --- | --- | --- |
|  | TNF-α | minimally yet significantly elevated | 1 hour post-injection | approximately 4 hours post-injection | 1 hours post-injection | ≤ 24 hours post-injection |  |  |  |
| increased dramatically | dextran sulfate sodium [DSS] |  |  |  |  |  | remained elevated over non-treated animals | not a mutagen nor genotoxic; also recorded: not directly genotoxic | up-regulation of TNF-α, MCP-1 (CCL2), and IFN-γ |
|  | B1 |  |  |  | 4 hours post-injection | ≤ 24 hours post-injection |  |  |  |
